B1: Centractin, beta: human brain protein (protein, UniProt P42025 1-376, looked up)
Beta-centractin: MESYDIIANQPVVIDNGSGVIKAGFAGDQIPKYCFPNYVGRPKHMRVMAGALEGDLFIGPKAEEHRGLLTIRYPMEHGVVRDWNDMERIWQYVYSKDQLQTFSEEHPVLLTEAPLNPSKNREKAAEVFFETFNVPALFISMQAVLSLYATGRTTGVVLDSGDGVTHAVPIYEGFAMPHSIMRVDIAGRDVSRYLRLLLRKEGVDFHTSAEFEVVRTIKERACYLSINPQKDEALETEKVQYTLPDGSTLDVGPARFRAPELLFQPDLVGDESEGLHEVVAFAIHKSDMDLRRTLFANIVLSGGSTLFKGFGDRLLSEVKKLAPKDIKIKISAPQERLYSTWIGGSILASLDTFKKMWVSKKEYEEDGSRAIHRKTF
B2: Dihydropyrimidinase-related protein 5: human brain protein (protein, UniProt Q9BPU6 1-564, looked up)
Dihydropyrimidinase-related …: MLANSASVRILIKGGKVVNDDCTHEADVYIENGIIQQVGRELMIPGGAKVIDATGKLVIPGGIDTSTHFHQTFMNATCVDDFYHGTKAALVGGTTMIIGHVLPDKETSLVDAYEKCRGLADPKVCCDYALHVGITWWAPKVKAEMETLVREKGVNSFQMFMTYKDLYMLRDSELYQVLHACKDIGAIARVHAENGELVAEGAKEALDLGITGPEGIEISRPEELEAEATHRVITIANRTHCPIYLVNVSSISAGDVIAAAKMQGKVVLAETTTAHATLTGLHYYHQDWSHAAAYVTVPPLRLDTNTSTYLMSLLANDTLNIVASDHRPFTTKQKAMGKEDFTKIPHGVSGVQDRMSVIWERGVVGGKMDENRFVAVTSSNAAKLLNLYPRKGRIIPGADADVVVWDPEATKTISASTQVQGGDFNLYENMRCHGVPLVTISRGRVVYENGVFMCAEGTGKFCPLRSFPDTVYKKLVQREKTLKVRGVDRTPYLGDVAVVVHPGKKEMGTPLADTPTRPVTRHGGMRDLHESSFSLSGSQIDDHVPKRASARILAPPGGRSSGIW
B3: Medium-chain specific acyl-CoA dehydrogenase: human brain protein (protein, UniProt P11310 26-421, looked up)
Medium-chain specific …: KANRQREPGLGFSFEFTEQQKEFQATARKFAREEIIPVAAEYDKTGEYPVPLIRRAWELGLMNTHIPENCGGLGLGTFDACLISEELAYGCTGVQTAIEGNSLGQMPIIIAGNDQQKKKYLGRMTEEPLMCAYCVTEPGAGSDVAGIKTKAEKKGDEYIINGQKMWITNGGKANWYFLLARSDPDPKAPANKAFTGFIVEADTPGIQIGRKELNMGQRCSDTRGIVFEDVKVPKENVLIGDGAGFKVAMGAFDKTRPVVAAGAVGLAQRALDEATKYALERKTFGKLLVEHQAISFMLAEMAMKVELARMSYQRAAWEVDSGRRNTYYASIAKAFAGDIANQLATDAVQILGGNGFNTEYPVEKLMRDAKIYQIYEGTSQIQRLIVAREHIDKYKN
B4: ATP synthase subunit gamma, mitochondrial: human brain protein (protein, UniProt P36542 26-298, looked up)
ATP synthase F(1) complex …: ATLKDITRRLKSIKNIQKITKSMKMVAAAKYARAERELKPARIYGLGSLALYEKADIKGPEDKKKHLLIGVSSDRGLCGAIHSSIAKQMKSEVATLTAAGKEVMLVGIGDKIRGILYRTHSDQFLVAFKEVGRKPPTFGDASVIALELLNSGYEFDEGSIIFNKFRSVISYKTEEKPIFSLNTVASADSMSIYDDIDADVLQNYQEYNLANIIYYSLKESTTSEQSARMTAMDNASKNASEMIDKLTLTFNRTRQAVITKELIEIISGAAALD
B5: Tryptophanyl-tRNA synthetase, cytoplasmic: human brain protein (protein, UniProt P23381 2-471, looked up)
Tryptophan--tRNA ligase, …: PNSEPASLLELFNSIATQGELVRSLKAGNASKDEIDSAVKMLVSLKMSYKAAAGEDYKADCPPGNPAPTSNHGPDATEAEEDFVDPWTVQTSSAKGIDYDKLIVRFGSSKIDKELINRIERATGQRPHHFLRRGIFFSHRDMNQVLDAYENKKPFYLYTGRGPSSEAMHVGHLIPFIFTKWLQDVFNVPLVIQMTDDEKYLWKDLTLDQAYSYAVENAKDIIACGFDINKTFIFSDLDYMGMSSGFYKNVVKIQKHVTFNQVKGIFGFTDSDCIGKISFPAIQAAPSFSNSFPQIFRDRTDIQCLIPCAIDQDPYFRMTRDVAPRIGYPKPALLHSTFFPALQGAQTKMSASDPNSSIFLTDTAKQIKTKVNKHAFSGGRDTIEEHRQFGGNCDVDVSFMYLTFFLEDDDKLEQIRKDYTSGAMLTGELKKALIEVLQPLIAEHQARRKEVTDEIVKEFMTPRKLSFDFQ
B6: Cytosolic acyl CoA thioester hydrolase: human brain protein (protein, UniProt O00154 1-380, looked up)
Cytosolic acyl coenzyme A …: MKLLARALRLCEFGRQASSRRLVAGQGCVGPRRGCCAPVQVVGPRADLPPCGACITGRIMRPDDANVAGNVHGGTILKMIEEAGAIISTRHCNSQNGERCVAALARVERTDFLSPMCIGEVAHVSAEITYTSKHSVEVQVNVMSENILTGAKKLTNKATLWYVPLSLKNVDKVLEVPPVVYSRQEQEEEGRKRYEAQKLERMETKWRNGDIVQPVLNPEPNTVSYSQSSLIHLVGPSDCTLHGFVHGGVTMKLMDEVAGIVAARHCKTNIVTASVDAINFHDKIRKGCVITISGRMTFTSNKSMEIEVLVDADPVVDSSQKRYRAASAFFTYVSLSQEGRSLPVPQLVPETEDEKKRFEEGKGRYLQMKAKRQGHAEPQP
B7: NAD-dependent deacetylase sirtuin-2: human brain protein (protein, UniProt Q8IXJ6 2-389, looked up)
NAD-dependent protein …: AEPDPSHPLETQAGKVQEAQDSDSDSEGGAAGGEADMDFLRNLFSQTLSLGSQKERLLDELTLEGVARYMQSERCRRVICLVGAGISTSAGIPDFRSPSTGLYDNLEKYHLPYPEAIFEISYFKKHPEPFFALAKELYPGQFKPTICHYFMRLLKDKGLLLRCYTQNIDTLERIAGLEQEDLVEAHGTFYTSHCVSASCRHEYPLSWMKEKIFSEVTPKCEDCQSLVKPDIVFFGESLPARFFSCMQSDFLKVDLLLVMGTSLQVQPFASLISKAPLSTPRLLINKEKAGQSDPFLGMIMGLGGGMDFDSKKAYRDVAWLGECDQGCLALAELLGWKKELEDLVRREHASIDAQSGAGVPNPSTSASPKKSPPPAKDEARTTEREKPQ
B8: Mu-crystallin homolog: human brain protein (protein, UniProt Q14894 1-314, looked up)
Ketimine reductase …: MSRVPAFLSAAEVEEHLRSSSLLIPPLETALANFSSGPEGGVMQPVRTVVPVTKHRGYLGVMPAYSAAEDALTTKLVTFYEDRGITSVVPSHQATVLLFEPSNGTLLAVMDGNVITAKRTAAVSAIATKFLKPPSSEVLCILGAGVQAYSHYEIFTEQFSFKEVRIWNRTKENAEKFADTVQGEVRVCSSVQEAVAGADVIITVTLATEPILFGEWVKPGAHINAVGASRPDWRELDDELMKEAVLYVDSQEAALKESGDVLLSGAEIFAELGEVIKGVKPAHCEKTTVFKSLGMAVEDTVAAKLIYDSWSSGK
B9: Ubiquitin carboxyl-terminal hydrolase L1: human brain protein (protein, UniProt P09936 1-220, looked up)
Ubiquitin carboxyl-terminal …: MQLKPMEINPEMLNKVLSRLGVAGQWRFVDVLGLEEESLGSVPAPACALLLLFPLTAQHENFRKKQIEELKGQEVSPKVYFMKQTIGNSCGTIGLIHAVANNQDKLGFEDGSVLKQFLSETEKMSPEDRAKCFEKNEAIQAAHDAVAQEGQCRVDDKVNFHFILFNNVDGHLYELDGRMPFPVNHGASSEDTLLKDAAKVCREFTEREQGEVRFSAVALC

tested on: oligomeric versus monomeric Aβ1-42 (Aβ1-42-biotin bait); test: Affinity capture interactome Experiment III (oAβ1-42-biotin vs mAβ1-42-biotin); details: oligomeric versus monomeric bait; human frontal lobe digitonin extract; TMT; pH 8.0, 4°C overnight

Molecule	Experiment III oAβ1-42-B/mAβ1-42-B Ratio
B1	3.25
B2	3.79
B3	1.82
B4	3.29
B5	3.97
B6	4.03
B7	2.58
B8	2.41
B9	1.39

tested on: oligomeric Aβ1-42 (oAβ1-42-biotin bait); test: Affinity capture interactome Experiment II (C-terminally tethered oAβ1-42-biotin vs biotin); details: enrichment relative to biotin-only negative control; human frontal lobe digitonin extract; TMT; pH 8.0, 4°C overnight

Molecule	Experiment II oAβ1-42-B/B Ratio
B9	1.87
